Positions count from the first letter of the chain named. Names may count otherwise.
B1: FUSE-589 (h2A11-HK5 Fc) (Fc fusion)
chain: EVQLLESGGGLVQPGGSLRLSCAASGSTYSANCMGWFRQAPGKERELASMSIRSGRTYYADSVKGRFTISQDGSKNTLYLQMNSLKAEDTAVYYCAAAYGGSRCVYNYRGQGTLVTVSS
notes: VHH-Fc format; not shown: Fc of the VHH-Fc format
B2: FUSE-590 (h5A1-FA9-HK2_Fc) (Fc fusion)
chain: EVQLLESGGGLVQRGGSLRLSCTASGYTNRLKCMGWFRQAPGKEREEIASISTGTGNTYYSDSVKGRFTISRDKSRNTLYLQMKSLRAEDTAVYYCAADVRPRGTTCHYNSRGQGTQVTVSS
notes: as for B1
B3: FUSE-595 (h5A1-FA9-HK7_Fc) (Fc fusion)
chain: B2 chain with S50T, S61A, R87K, R103K
notes: as for B1
B4: FUSE-591 (h5A1-FA9-HK3_Fc) (Fc fusion)
chain: B2 chain with Q13P, T23A, S50T, S61A, R72Q, K84N, R87K, R103K, S111K
notes: as for B1
B5: FUSE-592 (h5A1-FA9-HK4_Fc) (Fc fusion)
chain: B2 chain with Q13P, T23A, I48V, S61A, R72Q, M83L, K84N
notes: as for B1
B6: FUSE-594 (h5A1-FA9-HK6_Fc) (Fc fusion)
chain: B2 chain with Q13P, S61A, R72Q, K84N, R87K
notes: as for B1
B7: FUSE-593 (h5A1-FA9-HK5_Fc) (Fc fusion)
chain: B2 chain with T23A, M83L, K84N, R87K, R103K
notes: as for B1
B8: FUSE-596 (h5A1-FA9-HK8 Fc) (Fc fusion)
chain: B2 chain with Q13P, Q82K, M83L, R103D
notes: as for B1
B9: F22158102 (h5A1-BI-002 Fc) (Fc fusion)
chain: EVQLLESGGGLVQPGGSLRLSCAASGYTNRIKCMGWFRQAPGKEREEVASISTGTGNTYYADSVKGRFTISQDKSKNTLYLQMNSLKAEDTAVYYCAADVRPDGTTCHYNKRGQGTLVTVSS
notes: as for B1
B10: F221581015 (h5A1-BI-015 Fc) (Fc fusion)
chain: B9 chain with D103F
notes: VHH-Fc format; also called F22158115; not shown: Fc of the VHH-Fc format
B11: F22158106 (h5A1-BI-006 Fc) (Fc fusion)
chain: B9 chain with T105R, K111S
notes: as for B1
B12: F221581011 (h5A1-BI-011 Fc) (Fc fusion)
chain: B9 chain with D103F, K111S
notes: VHH-Fc format; also called F22158111; not shown: Fc of the VHH-Fc format
B13: F22158108 (h5A1-BI-008 Fc) (Fc fusion)
chain: B9 chain with T58A, T105R, K111S
notes: as for B1
B14: F221581020 (h5A1-BI-020 Fc) (Fc fusion)
chain: B9 chain with I31L, T58A, D103H
notes: VHH-Fc format; also called F22158120; not shown: Fc of the VHH-Fc format
B15: F221581017 (h5A1-BI-017 Fc) (Fc fusion)
chain: B9 chain with T58A, D103H, K111S
notes: VHH-Fc format; also called F22158117; not shown: Fc of the VHH-Fc format
B16: F221581010 (h5A1-BI-010 Fc) (Fc fusion)
chain: B9 chain with I31L, T105R
notes: VHH-Fc format; also called F22158110; not shown: Fc of the VHH-Fc format
B17: F22158109 (h5A1-BI-009 Fc) (Fc fusion)
chain: B9 chain with T58S, T105R
notes: as for B1
B18: F221581019 (h5A1-BI-019 Fc) (Fc fusion)
chain: B9 chain with T58A, D103H, T105R, K111S
notes: VHH-Fc format; also called F22158119; not shown: Fc of the VHH-Fc format
B19: F221581016 (h5A1-BI-016 Fc) (Fc fusion)
chain: B9 chain with I31L, T58A, D103H, K111S
notes: VHH-Fc format; also called F22158116; not shown: Fc of the VHH-Fc format
B20: F221581014 (h5A1-BI-014 Fc) (Fc fusion)
chain: B9 chain with D103F, T105R, K111S
notes: VHH-Fc format; also called F22158114; not shown: Fc of the VHH-Fc format
B21: F22158107 (h5A1-BI-007 Fc) (Fc fusion)
chain: B9 chain with I31L, T58A, T105R, K111S
notes: as for B1
B22: F22158103 (h5A1-BI-003 Fc) (Fc fusion)
chain: B9 chain with I31L, T58A
notes: as for B1
B23: F22158105 (h5A1-BI-005 Fc) (Fc fusion)
chain: B9 chain with I31L, T105F
notes: as for B1
B24: F22158104 (h5A1-BI-004 Fc) (Fc fusion)
chain: B9 chain with T58A
notes: as for B1
B25: F22158101 (h5A1-BI-001 Fc) (Fc fusion)
chain: B9 chain with T105F, K111S
notes: as for B1
B26: F221581013 (h5A1-BI-013 Fc) (Fc fusion)
chain: B9 chain with I31L, D103F
notes: VHH-Fc format; also called F22158113; not shown: Fc of the VHH-Fc format
B27: F221581012 (h5A1-BI-012 Fc) (Fc fusion)
chain: B9 chain with I31L, D103F, T105R, K111S
notes: VHH-Fc format; also called F22158112; not shown: Fc of the VHH-Fc format
B28: F221581018 (h5A1-BI-018 Fc) (Fc fusion)
chain: B9 chain with I31L, T58A, D103H, T105R, K111S
notes: VHH-Fc format; also called F22158118; not shown: Fc of the VHH-Fc format
B29: F221581021 (h5A1-BI-021 Fc) (Fc fusion)
chain: B9 chain with T58A, D103H
notes: VHH-Fc format; also called F22158121; not shown: Fc of the VHH-Fc format
B30: FUSE-662 - h2A11-HK2-16-N84S Fc (Fc fusion)
chain: B1 chain with S27V, T28G, E44D, Q71R, G73S, N83S
notes: as for B1
B31: FUSE-661 - h2A11-HK2-3-N84S Fc (Fc fusion)
chain: B1 chain with T28Q, Y29R, E44D, Q71R, G73S, N83S
notes: as for B1
B32: FUSE-655 - h5A1-FA9-HK6-N84S Fc (Fc fusion)
chain: B2 chain with Q13P, S61A, R72Q, K84S, R87K
notes: as for B1
B33: FUSE-654 - h5A1-FA9-HK6-R19K Fc (Fc fusion)
chain: B2 chain with Q13P, R19K, S61A, R72Q, K84N, R87K
notes: as for B1
B34: BI-HU9-VH9 h5A1 Fc (Fc fusion)
chain: B2 chain with Q13P, S50T, S61A, K74N, S85T, R103D, R112W
notes: VHH-Fc format; same VHH as FUSE-497; not shown: Fc of the VHH-Fc format
B35: FUSE-560 (h2A11-HK2 Fc) (Fc fusion)
chain: B1 chain with Q71R, G73S
notes: as for B1
B36: FUSE-561 (h2A11-HK3 Fc) (Fc fusion)
chain: B1 chain with Q71R, G73S, K86R
notes: as for B1
B37: FUSE-562 (h2A11-HK4 Fc) (Fc fusion)
chain: B1 chain with A60S, Q71R
notes: as for B1
B38: BI-HU9-HK-1 h5A1 Fc (Fc fusion)
chain: B9 chain with I31L, K111S
notes: as for B1
B39: BI-HU9-VH9-1 h5A1 Fc (Fc fusion)
chain: B2 chain with Q13P, S50T, S61A, R72Q, S85T, R103D, R112W
notes: as for B1
B40: BI-HU9-VHH31 h5A1 Fc (Fc fusion)
chain: EVQLVESGGGLVQPGGSLRLSCAASGFTVRLKCMGWFRQAPGKGLEEVATISTGTGNTYYADSVKGRFTISRDNSKNTLYLQMNSLRAEDTAVYYCAADVRPDGTTCHYNSWGQGTTVTVSS
notes: as for B1

Target: T1, human ROR1 (Receptor Tyrosine Kinase-Like Orphan Receptor 1) on the cell surface (human, UniProt Q01973 30-937)
T1 construct: whole, on cells; engineered into B16-F10 (high density) and LS174T (low density) cells; also called B16-F10-ROR1-H; LS174T-ROR1-L
T1 sequence (Q01973 30-937): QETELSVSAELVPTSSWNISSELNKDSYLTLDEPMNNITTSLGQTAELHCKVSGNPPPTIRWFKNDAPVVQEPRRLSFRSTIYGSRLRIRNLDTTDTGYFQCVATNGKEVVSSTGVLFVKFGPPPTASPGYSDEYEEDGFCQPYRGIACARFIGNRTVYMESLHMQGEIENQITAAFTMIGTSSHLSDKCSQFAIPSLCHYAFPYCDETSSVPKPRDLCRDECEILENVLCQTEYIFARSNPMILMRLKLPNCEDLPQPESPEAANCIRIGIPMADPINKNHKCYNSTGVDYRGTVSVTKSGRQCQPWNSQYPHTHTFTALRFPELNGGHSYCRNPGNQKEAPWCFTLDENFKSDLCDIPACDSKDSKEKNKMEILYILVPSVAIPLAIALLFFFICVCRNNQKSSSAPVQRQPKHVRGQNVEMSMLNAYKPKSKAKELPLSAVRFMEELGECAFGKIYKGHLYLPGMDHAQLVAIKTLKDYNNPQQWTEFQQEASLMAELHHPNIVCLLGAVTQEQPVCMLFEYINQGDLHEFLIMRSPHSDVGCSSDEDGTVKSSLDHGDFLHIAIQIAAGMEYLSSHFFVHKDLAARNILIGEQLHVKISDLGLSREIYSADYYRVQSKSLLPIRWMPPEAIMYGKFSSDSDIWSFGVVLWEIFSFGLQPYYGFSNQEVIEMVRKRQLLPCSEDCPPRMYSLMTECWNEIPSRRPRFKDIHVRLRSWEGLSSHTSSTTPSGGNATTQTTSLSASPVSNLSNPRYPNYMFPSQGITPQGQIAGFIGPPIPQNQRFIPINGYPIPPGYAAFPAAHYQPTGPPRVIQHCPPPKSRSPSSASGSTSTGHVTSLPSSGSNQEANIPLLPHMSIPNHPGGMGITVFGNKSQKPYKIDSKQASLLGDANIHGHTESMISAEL
Test: flow cytometry, B16-F10 cells expressing human ROR1 (high density)
Experimental: (§1) As shown in the tables below, mouse B16-F10 melanoma (Tables 9A-9F) or LS174T human colorectal adenocarcinoma (Tables 9G-9H) cells genetically engineered to express human ROR1 at high and low densities, respectively, were stained for flow cytometric analysis with 100 nM of humanized variants of the ROR1 specific VHHs, 5A1 or 2A11 in either a VHH-Fc format or the Ac13 format shown in FIG. 1. Cells were analyzed on a flow cytometer after the primary test article was fluorescently tagged with a goat anti human IgG-Fc specific PE secondary antibody. The positive control used was PE conjugated anti-human ROR1 clone 2A2. Negative controls included a PE labeled mouse IgG Ab, the secondary antibody only, the combination of a Hen Egg Lysozyme (HEL) specific antibody plus goat anti human IgG-Fc specific PE and Fluorescence Minus One (FMO). Other controls included the non-humanized version of 5A1-Fc (FUSE179), 2A11-Fc (FUSE112) and 5A1-Ac13 (FUSE488). Humanized variants were generated using computational design (FUSE489, FUSE497-498, FUSE563, FUSE569-570, and BI-HU9-VHH11-33), a yeast display library in which mutations were inserted into the Vernier zone residues of human framework indicated in GenBank accession number M99660 (FUSE524-525, FUSE589, FUSE597-598, FUSE537, FUSE661-662, BI-HU9-HK and BI-HU9-HK-1), and a second yeast display library in which mutations were inserted into the Vernier zone residues of human framework indicated in GenBank accession number AWH66715 and amino acid position 103 within CDR3 (FUSE559, FUSE590-596, BI-HU9-VH9-1, FUSE654-655 and FUSE661-662. Affinity matured variants of FUSE559 were also generated using computational design (F22158101-21; Table 9H).

MFI	Binder
6950	B1
7330	B2
7180	B3
7770	B4
7540	B5
7910	B6
7520	B7
6260	B8

Target: T1, human ROR1 (Receptor Tyrosine …)
Test: flow cytometry, LS174T cells expressing human ROR1 (low density)
Experimental: as §1

MFI	Binder
20500	B9
29300	B10
17400	B11
19400	B12
25100	B13
26500	B14
28600	B15
18700	B16
35000	B17
33800	B18
15000	B19
28700	B20
11500	B21
15800	B22
22300	B23
28900	B24
19700	B25
23800	B26
14200	B27
17500	B28
35800	B29

Target: T1, human ROR1 (Receptor Tyrosine …)
Test: as above
Remark: another data set of the same source
Experimental: as §1

MFI	Binder
4350	B30
4880	B31
4010	B32
4560	B33

Target: T1, human ROR1 (Receptor Tyrosine …)
Test: flow cytometry, B16-F10 cells expressing human ROR1 (high density)
Remark: another data set of the same source
Experimental: as §1

MFI	Binder
14400	B34
159000	B35
157000	B36
155000	B37
136000	B38
16600	B39
17900	B40

Reference: patent US20250313627A1 (FUSE BIOTHERAPEUTICS, published 2025)
